This note sets out measurements from patent US20240383984A1 (Genentech, published 2024).

Substitutions are numbered along the chain they refer to.

For experiment [1], the target named is T1, human FcRH5 protein fragment (soluble) (human, UniProt Q96RD9 16-851).
T1 construct: whole entry named; also called soluble human FcRH5; Human FcRH5 (BIACORE analyte)
T1 sequence: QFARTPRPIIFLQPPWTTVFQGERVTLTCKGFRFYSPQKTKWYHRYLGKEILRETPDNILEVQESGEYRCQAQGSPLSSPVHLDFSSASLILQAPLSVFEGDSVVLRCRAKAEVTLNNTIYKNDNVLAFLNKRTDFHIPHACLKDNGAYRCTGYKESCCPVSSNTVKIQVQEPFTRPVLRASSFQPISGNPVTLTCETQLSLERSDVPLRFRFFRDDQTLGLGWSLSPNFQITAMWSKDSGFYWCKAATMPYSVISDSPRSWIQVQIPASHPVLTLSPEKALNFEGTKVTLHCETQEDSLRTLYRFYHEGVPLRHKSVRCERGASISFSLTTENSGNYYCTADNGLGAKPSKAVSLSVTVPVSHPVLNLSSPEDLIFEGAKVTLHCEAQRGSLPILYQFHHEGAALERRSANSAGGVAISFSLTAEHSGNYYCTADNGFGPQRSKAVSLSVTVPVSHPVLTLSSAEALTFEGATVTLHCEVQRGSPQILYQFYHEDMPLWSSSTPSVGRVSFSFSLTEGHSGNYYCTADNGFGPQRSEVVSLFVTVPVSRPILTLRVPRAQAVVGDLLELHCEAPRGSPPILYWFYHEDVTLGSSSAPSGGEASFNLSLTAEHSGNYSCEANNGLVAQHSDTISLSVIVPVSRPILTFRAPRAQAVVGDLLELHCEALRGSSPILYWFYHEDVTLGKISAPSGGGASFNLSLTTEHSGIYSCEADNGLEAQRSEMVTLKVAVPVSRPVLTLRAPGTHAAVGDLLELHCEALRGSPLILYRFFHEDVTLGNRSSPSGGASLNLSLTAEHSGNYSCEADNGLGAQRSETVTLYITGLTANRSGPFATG
Kind of experiment: BIACORE, TDB format.

The target of experiment [2] is T2, human FcRH2 (full-length, on SVT2 cells) (human, UniProt Q96LA5 20-508).
T2 construct: whole, on cells; also called SVT2-FcRH2
T2 sequence (looked up): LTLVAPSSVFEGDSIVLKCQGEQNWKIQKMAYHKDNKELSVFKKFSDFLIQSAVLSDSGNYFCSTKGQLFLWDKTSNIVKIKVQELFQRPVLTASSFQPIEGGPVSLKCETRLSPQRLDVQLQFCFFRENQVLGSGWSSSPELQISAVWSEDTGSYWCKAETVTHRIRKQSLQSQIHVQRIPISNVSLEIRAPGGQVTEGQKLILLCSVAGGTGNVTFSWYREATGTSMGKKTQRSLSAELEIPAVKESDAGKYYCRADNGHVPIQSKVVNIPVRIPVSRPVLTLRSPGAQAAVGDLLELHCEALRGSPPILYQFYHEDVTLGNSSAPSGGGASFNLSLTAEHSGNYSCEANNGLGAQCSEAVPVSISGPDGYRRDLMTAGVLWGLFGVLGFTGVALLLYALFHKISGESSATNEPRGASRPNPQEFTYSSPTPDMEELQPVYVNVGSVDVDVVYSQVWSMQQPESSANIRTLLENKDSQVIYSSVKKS
Nature of the experiment: FACS, SVT2 cells, 3 µg/ml. The method, then: (§1) Human FcRH5, cyno FcRH5, human FcRH1, FcRH2, FcRH3, and FcRH4 transfected mouse SVT2 cells were used to test binding and cross-reactivity of FcRH5 TDBs. The method was carried out as follows. Cultured SVT2 cells were lifted using non-enzyme cell dissociation buffer (Sigma, #C5914). 1×10⁵ cells were suspended in 100 μL and incubated with FcRH5 TDBs at 3 μg/ml. […] Cells were washed twice with FACS buffer before flow cytometry analysis was carried out on a FACSCalibur.
A general note: Flow cytometry measures light scatter and fluorescence of single cells or particles in a stream.

The target in experiment [3] is T3, human FcRH1 (full-length, on SVT2 cells) (human, UniProt Q96LA6 17-429).
T3 construct: whole, on cells; also called SVT2-FcRH1
T3 sequence (looked up): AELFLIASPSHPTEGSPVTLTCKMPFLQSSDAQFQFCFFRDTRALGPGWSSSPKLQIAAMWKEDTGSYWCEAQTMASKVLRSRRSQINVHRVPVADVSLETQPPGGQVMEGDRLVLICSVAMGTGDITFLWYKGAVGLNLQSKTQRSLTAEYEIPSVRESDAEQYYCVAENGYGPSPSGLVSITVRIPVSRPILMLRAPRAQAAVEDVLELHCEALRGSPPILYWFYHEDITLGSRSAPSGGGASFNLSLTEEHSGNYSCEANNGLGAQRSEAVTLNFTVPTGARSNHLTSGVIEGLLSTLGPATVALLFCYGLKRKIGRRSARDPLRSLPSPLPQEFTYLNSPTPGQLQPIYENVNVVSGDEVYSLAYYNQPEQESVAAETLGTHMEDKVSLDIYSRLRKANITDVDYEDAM
Kind of experiment: FACS, SVT2 cells. On the procedure: as §1

The target in experiment [4] is T4, human FcRH4 (full-length, on SVT2 cells) (human, UniProt Q96PJ5 20-515).
T4 construct: whole, on cells; also called SVT2-FcRH4
T4 sequence (looked up): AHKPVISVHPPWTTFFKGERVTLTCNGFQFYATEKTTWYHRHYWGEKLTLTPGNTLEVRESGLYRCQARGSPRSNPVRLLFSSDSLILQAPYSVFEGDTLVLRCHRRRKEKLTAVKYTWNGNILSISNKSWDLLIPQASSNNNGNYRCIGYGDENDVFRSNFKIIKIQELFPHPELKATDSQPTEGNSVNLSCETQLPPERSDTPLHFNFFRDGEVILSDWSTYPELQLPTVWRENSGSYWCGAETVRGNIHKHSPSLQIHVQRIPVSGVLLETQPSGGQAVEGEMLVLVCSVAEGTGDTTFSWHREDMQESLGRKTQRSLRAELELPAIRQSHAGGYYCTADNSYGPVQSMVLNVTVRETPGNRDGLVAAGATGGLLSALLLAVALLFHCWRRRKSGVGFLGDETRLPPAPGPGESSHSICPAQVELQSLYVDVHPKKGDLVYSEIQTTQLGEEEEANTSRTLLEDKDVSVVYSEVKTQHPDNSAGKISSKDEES
Nature of the experiment: FACS, SVT2 cells. The method, then:
as §1

B1: hu1G7.v1.4/38E4.v1 TDB (bispecific antibody, V domains shown)
VH 1: EVQLVESGPGLVKPSETLSLTCTVSGFSLTRFGVHWVRQPPGKGLEWLGVIWRGGSTDYNAAFMSRLTISKDNSKNQVSLKLSSVTAADTAVYYCSNHYYGSSDYALDNWGQGTLVTVSS
VL 1: DIQMTQSPSSLSASVGDRVTITCKASQDVRNLVVWFQQKPGKAPKLLIYSGSYRYSGVPSRFSGSGSGTDFTLTISSLQPEDFATYYCQQHYSPPYTFGQGTKVEIK
VH 2: EVQLVQSGAEVKKPGASVKVSCKASGFTFTSYYIHWVRQAPGQGLEWIGWIYPENDNTKYNEKFKDRVTITADTSTSTAYLELSSLRSEDTAVYYCARDGYSRYYFDYWGQGTLVTVSS
VL 2: DIVMTQSPDSLAVSLGERATINCKSSQSLLNSRTRKNYLAWYQQKPGQSPKLLIYWTSTRKSGVPDRFSGSGSGTDFTLTISSLQAEDVAVYYCKQSFILRTFGQGTKVEIK
notes: knob-into-hole TDB; also called 1G7.v1.4 TDB; 1G7.v1.4 (TDB format)
A word on the Kd: it is the concentration at which binding is half-saturated. A high value points to weaker binding. Molecule B1 displayed a Kd in experiment [1] of 1.4 nM. For the same molecule, the binding result in experiment [2] is listed as “binds”; in experiment [3] it was “no binding (tested: 3 µg/ml)”; in experiment [4], “no binding (tested: 3 µg/ml)”.

B2: hu1G7.v1.13.1/38E4.v1 TDB (bispecific antibody, V domains shown)
VH 1: B1 VH 1
VL 1: B1 VL 1 with S52Y, S56T, S93Q
VH 2: B1 VH 2
VL 2: B1 VL 2
notes: knob-into-hole TDB; also called 1G7.v1.13.1 TDB
Regarding B2, the dissociation constant Kd in experiment [1] came to 0.9 nM. The binding result is given as “binds” in experiment [2], “no binding (tested: 3 µg/ml)” in experiment [3] and “no binding (tested: 3 µg/ml)” in experiment [4].

B3: hu1G7.v1.3/38E4.v1 TDB (bispecific antibody, V domains shown)
VH 1: B1 VH 1
VL 1: B1 VL 1 with L32I, H91Q
VH 2: B1 VH 2
VL 2: B1 VL 2
notes: knob-into-hole TDB; also called 1G7.v1.3 TDB
The molecule B3 registered an equilibrium dissociation constant (Kd) in experiment [1] of 1.5 nM. Also, the values for the binding result in experiment [2], in experiment [3] and in experiment [4] were “binds”, “no binding (tested: 3 µg/ml)” and “no binding (tested: 3 µg/ml)”, respectively.

B4: hu1G7.v1.13/38E4.v1 TDB (bispecific antibody, V domains shown)
VH 1: B1 VH 1 with L48I
VL 1: B1 VL 1 with S52Y, S56T, S93Q
VH 2: B1 VH 2
VL 2: B1 VL 2
notes: knob-into-hole TDB; also called 1G7.v1.13 TDB
With B4, the Kd in experiment [1] stood at 1.2 nM. Besides, the binding result is reported as “binds” in experiment [2], “no binding (tested: 3 µg/ml)” in experiment [3] and “no binding (tested: 3 µg/ml)” in experiment [4].

B5: hu1G7.v1.1/38E4.v1 TDB (bispecific antibody, V domains shown)
VH 1: B1 VH 1
VL 1: B1 VL 1 with H91Q
VH 2: B1 VH 2
VL 2: B1 VL 2
notes: knob-into-hole TDB; also called 1G7.v1.1 TDB
Turning to B5, the Kd in experiment [1] was 2.7 nM. In addition, the values for the binding result in experiment [2], in experiment [3] and in experiment [4] were “binds”, “no binding (tested: 3 µg/ml)” and “no binding (tested: 3 µg/ml)”, respectively.

B6: hu1G7.v1.2/38E4.v1 TDB (bispecific antibody, V domains shown)
VH 1: B1 VH 1
VL 1: B1 VL 1 with S52Y, Y53N, H91Q, Y92F, S93Q
VH 2: B1 VH 2
VL 2: B1 VL 2
notes: knob-into-hole TDB; also called 1G7.v1.2 TDB
B6 had a Kd in experiment [1] of 2.6 nM. For the same molecule, the binding result in experiment [2] is reported as “binds”; in experiment [3] it was “no binding (tested: 3 µg/ml)”; in experiment [4] it was “no binding (tested: 3 µg/ml)”.
